Numbering of substitutions follows the chain as printed.
T1: hFc-hFasL (fusion protein of human Fc fragment and human FasL extracellular region) (human, UniProt P48023 134-281)
T1 sequence: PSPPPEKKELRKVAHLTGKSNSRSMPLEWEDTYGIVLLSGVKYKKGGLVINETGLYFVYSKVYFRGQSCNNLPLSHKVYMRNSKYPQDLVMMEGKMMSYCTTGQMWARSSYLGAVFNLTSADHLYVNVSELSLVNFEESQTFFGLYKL

B1: humFL-M54-1 (antibody, human IgG4, V domains shown)
VH: QVQLVQSGAEVKKPGSSVKVSCKASGYTFTRFDISWVRQAPGQGLEWIGWIFPGDGSSQYNENFKGRATLTTDKSTSTAYMELSSLRSEDTAVYFCARSLISTAMFDHWGQGTLVTVSS
VL: EIVMTQSPATLSVSPGERATLSCRASKSVSTSDFSYIHWYQQKPGQPPRLLIFLASHLESGIPARFSGSGSGTEFTLTISSLQSEDFAVYYCQHSRELPRTFGQGTKVEIK
B2: humFL-M54-3 (antibody, human IgG4, V domains shown)
VH: B1 VH with I48M, L70I
VL: B1 VL
B3: humFL-M54-6 (antibody, human IgG4, V domains shown)
VH: B1 VH
VL: B1 VL with F53Y
B4: humFL-M54-11 (antibody, human IgG4, V domains shown)
VH: B1 VH
VL: B1 VL with P47A, F53Y
B5: humFL-M54-7 (antibody, human IgG4, V domains shown)
VH: B1 VH with I48M
VL: B1 VL with F53Y
B6: humFL-M54-4 (antibody, human IgG4, V domains shown)
VH: B1 VH with I48M, A68V
VL: B1 VL
B7: humFL-M54-13 (antibody, human IgG4, V domains shown)
VH: B1 VH with I48M, L70I
VL: B1 VL with P47A, F53Y
B8: humFL-M54-9 (antibody, human IgG4, V domains shown)
VH: B1 VH with I48M, A68V
VL: B1 VL with F53Y
B9: humFL-M54-8 (antibody, human IgG4, V domains shown)
VH: B1 VH with I48M, L70I
VL: B1 VL with F53Y
B10: humFL-M54-14 (antibody, human IgG4, V domains shown)
VH: B1 VH with I48M, A68V
VL: B1 VL with P47A, F53Y
B11: humFL-M54-15 (antibody, human IgG4, V domains shown)
VH: B1 VH with I48M, A68V, L70I, T72A
VL: B1 VL with P47A, F53Y
B12: humFL-M54-5 (antibody, human IgG4, V domains shown)
VH: B1 VH with I48M, A68V, L70I, T72A
VL: B1 VL
B13: humFL-M54-10 (antibody, human IgG4, V domains shown)
VH: B1 VH with I48M, A68V, L70I, T72A
VL: B1 VL with F53Y
B14: humFL-M54-12 (antibody, human IgG4, V domains shown)
VH: B1 VH with I48M
VL: B1 VL with P47A, F53Y
B15: humFL-M54-2 (antibody, human IgG4, V domains shown)
VH: B1 VH with I48M
VL: B1 VL
B16: humFL-M88-4 (antibody, human IgG4, V domains shown)
VH: QVQLVQSGAEVKKPGASVKVSCKGSGYTFTDYTIHWVRQAPGQGLEWMGVISTYQGDASYNQKFKGRVTMTVDKSTSTAYMELSSLRSEDTAVYYCARFPDWDYAMDYWGQGTLVTVSS
VL: EIVMTQSPATLSVSPGERATLSCKASQSVDYDGDSYMNWYQQKPGQPPRLLIYAASNLESGIPARFSGSGSGTEFTLTISSLQSEDFAVYYCQHSRELPYTFGQGTKLEIK
notes: Humanized FL-M88
B17: humFL-M88-6 (antibody, human IgG4, V domains shown)
VH: B16 VH with G24A, K74T, A79V
VL: B16 VL
notes: Humanized FL-M88
B18: humFL-M88-12 (antibody, human IgG4, V domains shown)
VH: B16 VH with G24A, K74T, A79V
VL: B16 VL with P47A
notes: Humanized FL-M88
B19: humFL-M88-7 (antibody, human IgG4, V domains shown)
VH: B16 VH with M48I, V68A
VL: B16 VL with P47A
notes: Humanized FL-M88
B20: humFL-M88-9 (antibody, human IgG4, V domains shown)
VH: B16 VH with V68A
VL: B16 VL with P47A
notes: Humanized FL-M88
B21: humFL-M88-5 (antibody, human IgG4, V domains shown)
VH: B16 VH with A79V
VL: B16 VL
notes: Humanized FL-M88
B22: humFL-M88-18 (antibody, human IgG4, V domains shown)
VH: B16 VH with G24A, K74T, A79V
VL: B16 VL with H94Q
notes: Humanized FL-M88
B23: humFL-M88-11 (antibody, human IgG4, V domains shown)
VH: B16 VH with A79V
VL: B16 VL with P47A
notes: Humanized FL-M88
B24: humFL-M88-17 (antibody, human IgG4, V domains shown)
VH: B16 VH with A79V
VL: B16 VL with H94Q
notes: Humanized FL-M88

The binders below were run against T1, hFc-hFasL (fusion protein of human Fc …) (assay: cell-based or functional assay).

HepG2 IC50(nM), FasL antigen-induced cell apoptosis [nM] | Jurkat IC50(nM), FasL antigen-induced cell apoptosis [nM] | Binder
0.028 | 0.035 | B1
0.035 |  | B2
0.031 |  | B3
0.028 | 0.037 | B4
0.028 | 0.059 | B5
0.03 | 0.053 | B6
0.029 | 0.028 | B7
0.026 | 0.035 | B8
0.025 | 0.044 | B9
0.023 | 0.038 | B10
0.03 | 0.015 | B11
0.027 | 0.052 | B12
0.034 | 0.017 | B13
0.032 | 0.015 | B14
0.031 | 0.028 | B15

Biological target: T1, hFc-hFasL (fusion protein of human Fc …)
Test: cell-based or functional assay
Remark: another data set of the same source

HepG2 IC50(nM), FasL antigen-induced cell apoptosis [nM] | Jurkat IC50(nM), FasL antigen-induced cell apoptosis [nM] | Binder
0.0333 | 0.0294 | B16
0.0204 |  | B17
 | 0.0234 | B18
0.0274 |  | B19
0.0225 | 0.022 | B20
0.0222 | 0.0186 | B21
 | 0.0325 | B22

These binders were tested against T1, hFc-hFasL (fusion protein of human Fc …) (assay: ELISA, hFc-hFasL coated, antibody titrated, anti-human kappa-HRP (protocol of Example 3.2)).

EC50 [pM] | Binder
288 | B16
343 | B23
235 | B17
276 | B18
340 | B19
284 | B20
230 | B21
272 | B22
329 | B24
